Blank lines part the entries; values can stand above or below the molecule they belong to.
How the values were obtained:
[1] = biological target: rice (Oryza sativa L.) δ1-pyrroline-5-carboxylate (P5C) reductase, from pET151-OsP5CR, TEV-cleaved (Oryza sativa (japonica rice)); assay: SEC; gel permeation on Superose 12 HR 10/30, 50 mM Tris-HCl pH 7.75, 250 mM NaCl, 100 uL of protein at 10 mg/mL, calibrated with molecular weight markers; identical elution patterns up to 1 M NaCl (data not shown); size of the oligomer from the apparent mass
[2] = biological target: T1, rice δ^1-pyrroline-5-carboxylate reductase (Oryza sativa, UniProt Q8GT01); assay: product inhibition of purified recombinant enzyme, NADH-dependent P5C reduction at […] nm; Lineweaver-Burk/non-linear regression; assay type: biochemical
T1 construct: gene Os01g0948400

[3] = biological target: Oryza sativa P5C reductase, from pMCSG68, for crystallization (Oryza sativa (japonica rice)); assay: crystal structure; 3.40 Å, space group P2(1), two decamers in the asymmetric unit; crystals from 100 mM Tris-HCl pH 8.5, 200 mM MgCl2, 18% PEG 8000, 19°C; molecular replacement with a homology model based on PDB 2izz
[4] = substrate: O=C(O)C1CCC=N1; assay: purified protein; assay type: biochemical, Oryza sativa; settings: NADPH P5C binds before NADPH (ordered substrate binding)
[5] = substrate: NC(=O)C1=CN([C@@H]2O[C@H](COP(=O)(O)OP(=O)(O)OC[C@H]3O[C@@H](n4cnc5c(N)ncnc54)[C@H](O)[C@@H]3O)[C@@H](O)[C@H]2O)C=CC1; assay: purified protein; settings: P5C binding is required to allow NADH to enter the active site; varied: cofactor
[6] = substrate: NC(=O)C1=CN([C@@H]2O[C@H](COP(=O)(O)OP(=O)(O)OC[C@H]3O[C@@H](n4cnc5c(N)ncnc54)[C@H](OP(=O)(O)O)[C@@H]3O)[C@@H](O)[C@H]2O)C=CC1; assay: purified protein; settings: varied: cofactor

Molecule: rice (Oryza sativa L.) δ1-pyrroline-5-carboxylate (P5C) reductase, from pET151-OsP5CR, TEV-cleaved (enzyme)
stoichiometry N [1]: 14 subunits

Molecule: Oryza sativa P5C reductase, from pMCSG68, for crystallization (enzyme)
stoichiometry N [3]: 10 subunits

B1: rice δ^1-pyrroline-5-carboxylate reductase (Oryza sativa Japonica Group) (protein)
chain: MAAPPQPVPAPAAASPEVFRLGFIGPGNLAESIARGVAASGVLPATAIRTAPHRRPERAEAFSSIGAHILETNAQVVDDSDVIVISVKPQIVRQVLVELKPLLSEEKLLVSIAAGIKMEDLQGWSGHRRFIRVMPNTPSAVGQAASVMCLGEMATENDENRVRSLFSAIGKVWTAEEKYFDAVTGLSGSGPAYIFLAIEAMADGGVAAGLPRDLALGLASQTVLGAATMVNKTGKHPGQLKDMVTSPAGTTITGIQELEKGAFRGTLINAVVAATKRCRELSQS
Km [4]: 28.8 ± 1.7 µM
Km [5]: 806 ± 89 µM
Vmax [5]: 158.3 ± 13.2 μkat (mg protein)^-1
Km [6]: 49.4 ± 1.8 µM
Vmax [6]: 11.68 ± 0.16 μkat (mg protein)^-1

More lines, now with the values ahead:

Ki [2]: 20.2 ± 1 mM
Molecule: O=C(O)[C@@H]1CCCN1 [L-proline]

Ki [2]: 0.00773 ± 0.00069 mM
Molecule: NC(=O)c1ccc[n+]([C@@H]2O[C@H](COP(=O)([O-])OP(=O)(O)OC[C@H]3O[C@@H](n4cnc5c(N)ncnc54)[C@H](OP(=O)(O)O)[C@@H]3O)[C@@H](O)[C@H]2O)c1 [NADP^+]

— paper PMC4517315, “Functional properties and structural characterization of rice δ^1-pyrroline-5-carboxylate reductase” (Frontiers in Plant Science, 2015)
